T1: GST-KBP (kinesin-binding protein) (human, UniProt Q96EK5 1-621)
T1 sequence (looked up): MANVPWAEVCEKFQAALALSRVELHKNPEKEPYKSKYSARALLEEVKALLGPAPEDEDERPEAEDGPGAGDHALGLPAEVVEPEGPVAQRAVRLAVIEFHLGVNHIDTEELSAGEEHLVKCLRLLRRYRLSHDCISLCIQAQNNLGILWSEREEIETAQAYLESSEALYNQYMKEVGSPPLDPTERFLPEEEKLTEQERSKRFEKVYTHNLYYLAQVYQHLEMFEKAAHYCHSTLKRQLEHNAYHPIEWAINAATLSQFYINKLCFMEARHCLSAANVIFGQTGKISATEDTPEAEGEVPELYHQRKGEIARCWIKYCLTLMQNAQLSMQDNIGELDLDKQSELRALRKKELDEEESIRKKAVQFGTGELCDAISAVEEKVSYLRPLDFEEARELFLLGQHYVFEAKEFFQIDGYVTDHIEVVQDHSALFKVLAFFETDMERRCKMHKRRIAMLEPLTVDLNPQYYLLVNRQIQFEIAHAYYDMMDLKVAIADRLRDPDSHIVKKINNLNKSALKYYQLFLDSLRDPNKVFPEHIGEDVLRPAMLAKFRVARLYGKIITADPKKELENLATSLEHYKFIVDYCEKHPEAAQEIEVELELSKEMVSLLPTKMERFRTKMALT

B1: KIF18A-N480-GFP-His6 (domain or fragment, human, UniProt Q8NI77 1-480, looked up)
chain: MSVTEEDLCHHMKVVVRVRPENTKEKAAGFHKVVHVVDKHILVFDPKQEEVSFFHGKKTTNQNVIKKQNKDLKFVFDAVFDETSTQSEVFEHTTKPILRSFLNGYNCTVLAYGATGAGKTHTMLGSADEPGVMYLTMLHLYKCMDEIKEEKICSTAVSYLEVYNEQIRDLLVNSGPLAVREDTQKGVVVHGLTLHQPKSSEEILHLLDNGNKNRTQHPTDMNATSSRSHAVFQIYLRQQDKTASINQNVRIAKMSLIDLAGSERASTSGAKGTRFVEGTNINRSLLALGNVINALADSKRKNQHIPYRNSKLTRLLKDSLGGNCQTIMIAAVSPSSVFYDDTYNTLKYANRAKDIKSSLKSNVLNVNNHITQYVKICNEQKAEILLLKEKLKAYEEQKAFTNENDQAKLMISNPQEKEIERFQEILNCLFQNREEIRQEYLKLEMLLKENELKSFYQQQCHKQIEMMCSEDKVEKATGKR
B2: His6-KIF15-N420 (domain or fragment, human, UniProt Q9NS87 1-420, looked up)
chain: MAPGCKTELRSVTNGQSNQPSNEGDAIKVFVRIRPPAERSGSADGEQNLCLSVLSSTSLRLHSNPEPKTFTFDHVADVDTTQESVFATVAKSIVESCMSGYNGTIFAYGQTGSGKTFTMMGPSESDNFSHNLRGVIPRSFEYLFSLIDREKEKAGAGKSFLCKCSFIEIYNEQIYDLLDSASAGLYLREHIKKGVFVVGAVEQVVTSAAEAYQVLSGGWRNRRVASTSMNRESSRSHAVFTITIESMEKSNEIVNIRTSLLNLVDLAGSERQKDTHAEGMRLKEAGNINRSLSCLGQVITALVDVGNGKQRHVCYRDSKLTFLLRDSLGGNAKTAIIANVHPGSRCFGETLSTLNFAQRAKLIKNKAVVNEDTQGNVSQLQAEVKRLKEQLAELASGQTPPESFLTRDKKKTNYMEYFQE

Target: T1, GST-KBP (kinesin-binding protein)
Assay: pull-down

Binder	binding result
B1	binds
B2	binds

Source: PMC6446846 (The Journal of Cell Biology, 2019)
